Measured values as given in patent US20160187355A1 (AUGUSTA UNIVERSITY RESEARCH INSTITUTE, published 2016).
Blank lines part the entries; values can stand above or below the molecule they belong to.

What was measured:
LRP4-Myc = biological target: T1, LRP4-Myc (UniProt Q9QYP1 21-1905); assay: solid phase binding: purified LRP4-Myc (name as in the legend) coated on plate, bound AP activity with pNPP
T1 construct: whole, on cells; also called Myc-tagged full length LRP4; not shown: Myc tag of pcDNA3.1-MycHis; His tag of pcDNA3.1-MycHis
T1 sequence (Q9QYP1 21-1905): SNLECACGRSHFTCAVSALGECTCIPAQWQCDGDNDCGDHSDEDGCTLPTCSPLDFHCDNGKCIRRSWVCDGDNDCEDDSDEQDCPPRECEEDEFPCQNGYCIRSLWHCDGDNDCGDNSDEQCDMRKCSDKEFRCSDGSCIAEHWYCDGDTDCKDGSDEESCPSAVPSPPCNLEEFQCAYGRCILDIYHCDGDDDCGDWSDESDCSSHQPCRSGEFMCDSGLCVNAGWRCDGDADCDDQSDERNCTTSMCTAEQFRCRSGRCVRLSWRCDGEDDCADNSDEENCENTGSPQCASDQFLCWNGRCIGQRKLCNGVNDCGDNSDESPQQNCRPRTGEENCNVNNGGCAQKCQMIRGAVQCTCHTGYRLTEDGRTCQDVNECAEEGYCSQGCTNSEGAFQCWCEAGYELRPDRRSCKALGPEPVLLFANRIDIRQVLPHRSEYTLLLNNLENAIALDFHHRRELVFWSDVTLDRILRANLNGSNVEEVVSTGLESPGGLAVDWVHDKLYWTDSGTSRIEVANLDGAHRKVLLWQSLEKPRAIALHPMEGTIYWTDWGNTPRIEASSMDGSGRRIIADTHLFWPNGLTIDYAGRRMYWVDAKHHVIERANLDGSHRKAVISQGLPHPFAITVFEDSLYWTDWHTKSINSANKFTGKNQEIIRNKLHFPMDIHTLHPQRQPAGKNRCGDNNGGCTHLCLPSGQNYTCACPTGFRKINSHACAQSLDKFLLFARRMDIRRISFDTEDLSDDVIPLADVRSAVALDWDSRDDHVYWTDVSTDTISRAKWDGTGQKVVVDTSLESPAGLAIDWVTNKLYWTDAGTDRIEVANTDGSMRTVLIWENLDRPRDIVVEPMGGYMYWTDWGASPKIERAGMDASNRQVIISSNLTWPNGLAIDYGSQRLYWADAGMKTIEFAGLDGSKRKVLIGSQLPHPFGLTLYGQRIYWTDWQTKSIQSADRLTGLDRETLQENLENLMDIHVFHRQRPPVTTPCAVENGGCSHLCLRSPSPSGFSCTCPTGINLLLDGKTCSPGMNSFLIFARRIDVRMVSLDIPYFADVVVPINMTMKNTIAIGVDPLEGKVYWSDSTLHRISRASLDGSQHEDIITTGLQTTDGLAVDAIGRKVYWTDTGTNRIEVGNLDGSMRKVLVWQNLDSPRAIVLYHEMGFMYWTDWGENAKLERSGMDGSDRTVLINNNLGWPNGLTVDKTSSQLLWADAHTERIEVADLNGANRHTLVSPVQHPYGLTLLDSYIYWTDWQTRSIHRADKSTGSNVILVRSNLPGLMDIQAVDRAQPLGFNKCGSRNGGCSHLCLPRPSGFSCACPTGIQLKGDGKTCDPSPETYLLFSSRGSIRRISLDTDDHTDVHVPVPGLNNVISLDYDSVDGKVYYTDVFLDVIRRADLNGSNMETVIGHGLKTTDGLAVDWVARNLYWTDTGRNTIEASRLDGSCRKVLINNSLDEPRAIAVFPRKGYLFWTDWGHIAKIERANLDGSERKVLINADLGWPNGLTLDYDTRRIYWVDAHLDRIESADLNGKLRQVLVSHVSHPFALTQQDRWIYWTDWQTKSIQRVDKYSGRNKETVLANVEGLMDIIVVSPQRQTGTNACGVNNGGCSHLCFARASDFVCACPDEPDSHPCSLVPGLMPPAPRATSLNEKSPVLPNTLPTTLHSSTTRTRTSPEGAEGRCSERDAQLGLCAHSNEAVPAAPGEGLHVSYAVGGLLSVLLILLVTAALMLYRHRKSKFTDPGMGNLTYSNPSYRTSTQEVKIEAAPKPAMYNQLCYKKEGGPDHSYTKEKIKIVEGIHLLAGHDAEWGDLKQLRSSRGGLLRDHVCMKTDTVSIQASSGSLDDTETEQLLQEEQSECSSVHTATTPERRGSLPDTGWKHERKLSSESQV
Procedure: FIG. 6A-G. Direct interaction between LRP4 and MuSK. […] Flag-MuSKect immobilized on beads were incubated with condition media of cells expressing the extracellular domains of LRP4 (LRP4N-Myc) or the empty vector (control) in the presence or absence of neuronal agrin. Precipitated LRP4 was analyzed by immunoblot with anti-Myc antibody. […] FIG. 6B is a quantitative analysis of LRP4N-Myc and Flag-MuSK. Data shown were mean±SEM, n=3; *, p <0.05 in comparison with the no-agrin group. […] Purified LRP4-Myc was coated on Maxi-Sorp Immuno Plates, which were incubated with MuSK-AP. Bound AP was measured with pNPP as substrate. Data shown were mean±SEM. n=4. FIG. 6D is a Scatchard plot of data in FIG. 6C. Y axis represents the ratio of bound to free MuSK-AP whereas X axis represents the concentration of bound MuSK-AP. […] Experiments were done as in FIG. 6A except condition medium of cells expressing the extracellular domain of LRP6 was used. […] HEK293 cells were transfected with LRP4 and/or Flag-MuSK. Lysates were incubated with anti-Flag antibody, and resulting immunocomplex was analyzed for LRP4 and Flag. Lysates were also probed to indicate equal amounts of indicated proteins. […]
Solid phase binding assay. […] Coated wells were incubated with purified AP fusion proteins and the AP activity was measured using pNPP as substrate.

LRP4N-Myc (rat) [1] = biological target: LRP4N-Myc (rat) (UniProt Q9QYP1); assay: solid phase binding of MuSK-AP to coated LRP4, Scatchard plot
Chain of LRP4N-Myc (rat) (Q9QYP1 21-1723): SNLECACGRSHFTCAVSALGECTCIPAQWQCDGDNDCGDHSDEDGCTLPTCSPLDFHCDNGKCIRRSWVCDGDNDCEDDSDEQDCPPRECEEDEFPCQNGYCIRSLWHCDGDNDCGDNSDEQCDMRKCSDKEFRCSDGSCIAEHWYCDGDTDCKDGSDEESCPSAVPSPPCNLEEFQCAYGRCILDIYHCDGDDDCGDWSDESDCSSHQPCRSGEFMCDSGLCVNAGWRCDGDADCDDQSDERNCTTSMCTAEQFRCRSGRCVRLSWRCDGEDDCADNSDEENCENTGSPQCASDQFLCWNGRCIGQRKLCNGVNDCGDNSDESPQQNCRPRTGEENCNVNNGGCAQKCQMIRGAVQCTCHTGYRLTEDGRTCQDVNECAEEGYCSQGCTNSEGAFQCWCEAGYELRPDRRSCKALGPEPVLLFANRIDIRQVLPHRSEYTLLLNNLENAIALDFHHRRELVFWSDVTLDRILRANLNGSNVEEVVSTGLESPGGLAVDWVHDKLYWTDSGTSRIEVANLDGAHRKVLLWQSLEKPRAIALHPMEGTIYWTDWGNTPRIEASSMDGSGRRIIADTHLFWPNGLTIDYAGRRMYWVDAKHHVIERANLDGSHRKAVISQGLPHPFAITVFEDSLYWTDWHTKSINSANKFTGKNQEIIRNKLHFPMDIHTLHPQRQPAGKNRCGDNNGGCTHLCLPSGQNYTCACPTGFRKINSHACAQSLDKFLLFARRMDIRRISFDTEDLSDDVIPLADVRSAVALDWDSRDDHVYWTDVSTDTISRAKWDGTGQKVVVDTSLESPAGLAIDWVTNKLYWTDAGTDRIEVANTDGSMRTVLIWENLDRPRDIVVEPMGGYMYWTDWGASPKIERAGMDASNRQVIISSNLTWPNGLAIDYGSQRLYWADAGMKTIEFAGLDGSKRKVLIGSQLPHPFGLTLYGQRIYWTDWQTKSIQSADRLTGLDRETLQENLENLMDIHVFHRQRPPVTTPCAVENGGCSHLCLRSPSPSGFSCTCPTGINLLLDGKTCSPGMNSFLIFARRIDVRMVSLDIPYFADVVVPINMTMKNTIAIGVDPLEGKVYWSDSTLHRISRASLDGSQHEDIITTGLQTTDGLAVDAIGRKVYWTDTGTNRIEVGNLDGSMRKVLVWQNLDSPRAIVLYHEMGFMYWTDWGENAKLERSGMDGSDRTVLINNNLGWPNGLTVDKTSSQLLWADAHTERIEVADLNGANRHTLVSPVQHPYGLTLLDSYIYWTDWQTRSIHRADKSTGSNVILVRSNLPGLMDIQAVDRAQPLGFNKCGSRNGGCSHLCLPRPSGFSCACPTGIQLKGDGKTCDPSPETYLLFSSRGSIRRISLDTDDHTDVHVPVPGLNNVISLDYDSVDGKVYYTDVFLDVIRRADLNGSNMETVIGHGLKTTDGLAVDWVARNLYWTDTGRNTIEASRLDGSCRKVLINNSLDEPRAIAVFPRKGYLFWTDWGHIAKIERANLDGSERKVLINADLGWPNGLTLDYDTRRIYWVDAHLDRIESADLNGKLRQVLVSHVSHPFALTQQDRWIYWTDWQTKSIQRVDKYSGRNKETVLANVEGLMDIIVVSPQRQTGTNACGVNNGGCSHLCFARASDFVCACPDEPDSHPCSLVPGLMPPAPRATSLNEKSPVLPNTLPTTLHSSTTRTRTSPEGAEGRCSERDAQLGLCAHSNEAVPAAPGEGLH

LRP4N-Myc (rat) [2] = biological target: LRP4N-Myc (rat) (UniProt Q9QYP1); assay: solid phase binding of nAgrin-AP to coated LRP4, Scatchard plot
LRP4N-Myc (rat) [3] = biological target: LRP4N-Myc (rat) (UniProt Q9QYP1); assay: solid phase binding: purified LRP4 (legend: LRP4-Myc; paragraph 111: LRP4N-Myc) coated on plate, bound AP activity with pNPP
[4] = biological target: T2, full length LRP4 (pcDNA-LRP4) (UniProt Q9QYP1 21-1905, limits assumed); assay: intact cell binding on transfected C2C12 myoblasts, BCIP/NBT staining quantified
T2 construct: whole, on cells; Expressed in transfected C2C12 myoblasts or HEK293 cells; also called exogenous LRP4
T2 sequence (Q9QYP1 21-1905 limits assumed): as the sequence (Q9QYP1 21-1905) above
Procedure: FIG. 4A-G. Expression of LRP4 enables binding activity for neuronal agrin and MuSK signaling. […] C2C12 myoblasts were transfected by empty vector (control), LRP4 and/or Flag-MuSK. 36 hr after transfection, myoblasts were incubated with AP alone, mAgrin-AP or nAgrin-AP for 90 min at room temperature. Endogenous AP was inactivated by heating and bound AP was visualized in cells by staining with BCIP/NBT. FIG. 4B is a quantification of data in FIG. 4A. Data shown were mean±SEM. n=6; *, P<0.05 in comparison with mAgrin-AP of the same group or nAgrin-AP in the control group. FIG. 4C and FIG. 4D show nAgrin-AP bound to HEK293 cells expressing LRP4, but not those expressing LRP5. HEK293 cells were transfected without (control) or with LRP4-Myc (FIG. 4C) or LRP5-Myc (FIG. 4D). 36 hr after transfection, transfected cells were incubated with nAgrin-AP or mAgrin-AP. In some experiments, control cells were incubated with nAgrin-AP. After heat inactivation of endogenous AP, lysates were assayed for transfected AP using pNPP as substrate. […] In FIG. 4E, lysates were incubated with anti-Flag antibody, and resulting immunocomplex was analyzed with anti-phosphotyrosine antibody 4G10. […] FIG. 4G is a quantitative analysis of data in FIG. 4E and FIG. 4F. MuSK and Abl phosphorylation was quantified by using the ImageJ software. […]

- EC50 (read off the curve) (LRP4-Myc): 0.3 nM
- Kd (LRP4N-Myc (rat) [1]): 0.45 nM
Molecule: MuSK-AP (from UniProt P05187 23-511) (receptor)

- Kd (LRP4N-Myc (rat) [2]): 0.5 nM
- EC50 (read off the curve) (LRP4N-Myc (rat) [3]): 0.4 nM
Molecule: nAgrin-AP (from UniProt P25304 1145-1940) (ligand)

- binding result (LRP4-Myc): no binding (tested: 1000 nM)
B1: AP alone (enzyme, human, UniProt P05187 23-511, looked up)
chain: IIPVEEENPDFWNREAAEALGAAKKLQPAQTAAKNLIIFLGDGMGVSTVTAARILKGQKKDKLGPEIPLAMDRFPYVALSKTYNVDKHVPDSGATATAYLCGVKGNFQTIGLSAAARFNQCNTTRGNEVISVMNRAKKAGKSVGVVTTTRVQHASPAGTYAHTVNRNWYSDADVPASARQEGCQDIATQLISNMDIDVILGGGRKYMFRMGTPDPEYPDDYSQGGTRLDGKNLVQEWLAKRQGARYVWNRTELMQASLDPSVTHLMGLFEPGDMKYEIHRDSTLDPSLMEMTEAALRLLSRNPRGFFLFVEGGRIDHGHHESRAYRALTETIMFDDAIERAGQLTSEEDTLSLVTADHSHVFSFGGYPLRGSSIFGLAPGKARDRKAYTVLLYGNGPGYVLKDGARPDVTESESGSPEYRQQSAVPLDEETHAGEDVAVFARGPQAHLVHGVQEQTFIAHVMAFAACLEPYTACDLAPPAGTTDAAHPG
notes: Control protein; also called control (empty pAPtag-5)
- binding result [4]: no binding (tested: 5 nM (not printed on the sheet))
